The text below walks through data of US20090110678A1 (Eli Lilly, published 2009).

What is called IC50 is the concentration that inhibits the measured activity by half. A higher IC50 goes with weaker potency in that assay. For orientation: EC50 means the concentration giving half of the maximal effect. Lower therefore signals greater potency. One may read the koff as a measure of how fast the partners let go of each other. A lower koff goes with slow dissociation. Broadly, the Kd is the concentration at which binding is half-saturated. Higher therefore signals weaker binding.

The target of experiment [1] is T1, PDGFRα expressed on cells (PAE Rα, PC3-ML, SKLMS-1, U118) (human, UniProt P16234 24-1089). In words: cell-based or functional assay.
T1 sequence (P16234 24-1089): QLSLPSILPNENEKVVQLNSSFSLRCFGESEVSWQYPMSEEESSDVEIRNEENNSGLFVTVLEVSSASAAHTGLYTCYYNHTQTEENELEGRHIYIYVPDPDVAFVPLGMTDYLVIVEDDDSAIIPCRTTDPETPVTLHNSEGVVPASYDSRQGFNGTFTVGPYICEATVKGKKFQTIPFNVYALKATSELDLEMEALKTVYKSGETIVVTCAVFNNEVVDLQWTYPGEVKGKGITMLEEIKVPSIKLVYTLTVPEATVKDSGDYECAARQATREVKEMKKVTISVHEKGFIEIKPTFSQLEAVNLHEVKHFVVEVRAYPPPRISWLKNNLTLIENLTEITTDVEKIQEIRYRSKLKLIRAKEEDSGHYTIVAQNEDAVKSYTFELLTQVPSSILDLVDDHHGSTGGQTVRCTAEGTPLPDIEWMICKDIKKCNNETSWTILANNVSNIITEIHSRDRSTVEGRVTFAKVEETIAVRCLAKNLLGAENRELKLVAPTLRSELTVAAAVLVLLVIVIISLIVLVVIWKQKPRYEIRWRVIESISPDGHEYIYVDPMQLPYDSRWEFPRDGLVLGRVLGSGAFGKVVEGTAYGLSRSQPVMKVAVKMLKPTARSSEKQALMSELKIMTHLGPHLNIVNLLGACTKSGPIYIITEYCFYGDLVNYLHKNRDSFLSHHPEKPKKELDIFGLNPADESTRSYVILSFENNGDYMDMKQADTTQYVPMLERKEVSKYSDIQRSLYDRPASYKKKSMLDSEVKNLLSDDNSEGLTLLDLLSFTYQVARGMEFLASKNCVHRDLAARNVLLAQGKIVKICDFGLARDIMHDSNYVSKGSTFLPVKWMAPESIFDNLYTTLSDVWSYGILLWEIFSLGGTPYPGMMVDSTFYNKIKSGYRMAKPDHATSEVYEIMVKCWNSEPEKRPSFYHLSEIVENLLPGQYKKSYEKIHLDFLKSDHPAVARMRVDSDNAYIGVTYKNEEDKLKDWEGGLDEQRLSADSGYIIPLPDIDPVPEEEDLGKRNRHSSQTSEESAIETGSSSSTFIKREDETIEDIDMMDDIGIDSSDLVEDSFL
Experiment [2] has as its target T1, PDGFRα expressed on cells (PAE Rα, …). In words: cell-based PDGF blocking assay (Heldin et al. 1988); cells and PDGF isoform not named; cell-based PDGF blocking; cells and isoform not named.
Experiment [3] deals with T2, Human PDGFRα extracellular domain (ECD) (human, UniProt P16234 24-528).
T2 construct: extracellular domain; Bought reagent; also called PDGFRa ECD; PDGFRα ECD
T2 sequence (P16234 24-528): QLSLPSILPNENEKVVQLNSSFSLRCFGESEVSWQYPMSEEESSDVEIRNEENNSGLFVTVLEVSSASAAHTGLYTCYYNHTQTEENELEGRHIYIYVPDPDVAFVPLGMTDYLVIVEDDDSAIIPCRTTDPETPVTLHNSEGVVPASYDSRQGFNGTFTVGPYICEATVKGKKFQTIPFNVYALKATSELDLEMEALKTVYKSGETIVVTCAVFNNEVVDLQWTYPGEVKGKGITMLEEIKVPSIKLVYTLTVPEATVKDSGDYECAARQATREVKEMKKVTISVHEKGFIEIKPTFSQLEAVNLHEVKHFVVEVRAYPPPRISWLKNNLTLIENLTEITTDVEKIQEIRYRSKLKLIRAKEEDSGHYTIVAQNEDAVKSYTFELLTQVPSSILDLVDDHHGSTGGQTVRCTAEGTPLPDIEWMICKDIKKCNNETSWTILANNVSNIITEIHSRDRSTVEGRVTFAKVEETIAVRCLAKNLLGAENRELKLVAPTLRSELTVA
The experiment can be described thus: direct binding ELISA on immobilized PDGFRα ECD (ED50, 50% maximum binding). A general note: ELISA stands for enzyme-linked immunosorbent assay.

Experiment [4] has as its target T2, Human PDGFRα extracellular domain (ECD). The experiment can be described thus: solid-phase blocking assay: inhibition of [125I]PDGF-AA binding to immobilized PDGFRα ECD.
Experiment [5] shares this target. The experiment can be described thus: SPR, BIAcore 3000, PDGFRα ECD immobilized, antibody injected. How it is done:
(§1) The kinetics of antibody binding to PDGFRα was measured using a BIAcore 3000 instrument (BIAcore, Inc., Piscataway, N.J.). PDGFRα ECD was immobilized onto a sensor chip and antibody was injected at various concentrations. Sensograms were obtained at each concentration and evaluated using the BIA Evaluation 2.0 program to determine the rate constants. The affinity constant, Kd, was calculated from the ratio of rate constants Koff/Kₒₙ.
For orientation: In SPR one partner is held on a chip, and binding of the other changes the refractive index at the surface.

For experiment [6] the target is unchanged. In words: SPR, BIAcore 3000, PDGFRα ECD immobilized, antibody injected; Koff/Kon. How it is done: as §1
Experiment [7] has the same target. The experiment can be described thus: solid-phase blocking of iodinated PDGF binding to immobilized PDGFRα ECD; the table does not name the ligand, [125I]PDGF-AA by the legend of FIG. 13B; solid-phase PDGF blocking; ligand not named in Table 6.
For experiment [8] the target is unchanged. The experiment can be described thus: solid-phase blocking of [125I]PDGF-BB binding to immobilized PDGFRα ECD; [125I]PDGF-BB as ligand, solid phase.

B1: PDGF-BB (ligand, UniProt P01127 82-190, looked up)
chain: SLGSLTIAEPAMIAECKTRTEVFEISRRLIDRTNANFLVWPPCVEVQRCSGCCNNRNVQCRPTQVQLRPVQVRKIEIVRKKPIFKKATVTLEDHLACKCETVAAARPVT
modifications: 125I label in the blocking assay
On to B1, for which the “PDGFRα tyrosine phosphorylation in PAE Rα cells” value in experiment [1] is ~5 fold (at 3 nmol/L).

B2: IMC-3G3, human anti-PDGFRα monoclonal antibody (antibody, human IgG1, V domains shown)
VH: QLQLQESGPGLVKPSETLSLTCTVSGGSINSSSYYWGWLRQSPGKGLEWIGSFFYTGSTYYNPSLRSRLTISVDTSKNQFSLMLSSVTAADTAVYYCARQSTYYYGSGNYYGWFDRWDQGTLVTVSS
VL: EIVLTQSPATLSLSPGERATLSCRASQSVSSYLAWYQQKPGQAPRLLIYDASNRATGIPARFSGSGSGTDFTLTISSLEPEDFAVYYCQQRSNWPPAFGQGTKVEIK
notes: also called EMC-3G3; anti-PDGFRα antibody
As to B2, the IC50 in experiment [2] came to 0.58 nM; in experiment [7] it was 0.24 nM; in experiment [8], 0.43 nM. The EC50 in experiment [3] was found to be 0.06 nM. Further, the “IC50 (read off the curve)” value in experiment [4] is about 0.3 nM. For the same molecule, the off-rate (koff) in experiment [5] is 4.7e-05 s⁻¹. This molecule also yielded a Kd in experiment [6] of 0.04 nM. Further, in experiment [1], the “EC50, inhibition of PDGF-AA-induced thymidine incorporation in U118 cells” value was 3.4 nM.
